This passage reports protein production results from a protein production outcome set (Wang et al. 2014).
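Further: failed if final PepcDB status was selected cloned or expressed and not failed if soluble or beyond.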

This data set can be described thus: label from the status in PepcDB records.
In the case of “MCGTRSSAQTSKTSLCALLLSAAMSLVLAAPASAAADCIAGSKAAPAELITSCSAIIDQAANSSSDRAAALLVRADANARTSGGLTQALRDIDRAIALDGKNAKAWRLRGDLLREAGGDLNRAAADLSKAIELDPQDAESYELRGVVYTSQRRLDRALADYDQAIKLKPGDAQAWSDRGVTYYLGGDNEKAIRDLSEALRLDPNRPRTYTNRGAAYKKLGQLDKSVADAAEAIRLDPKVPEYYDNRGLSLAAMGDYDKAIADYDQALRLAPKPNFFTNRGDSYQFKGEFGAALSDYESALKLDPNFAQTYNNRAVLYKKMGERRKALADYETALKLDPGNDNAANGRRTMIAEIAKFGDEPRRPLAANSGNGPSFDCATAKREVEKVICADPELGVLDRQIAETYERVLKSANRRSAGDLRRTQRDFLATRNSSFGRPGYDLRKVMQERLQRLNAMEG”, the protein production result is “failed”.

In the case of “RLNFLDTLGRAVTEATDPDQIMAITTRMLVEHLGLSSCAYAVMDPDEDGFTICGDAVTPGSPRLVGHYHLHDFGRLAVSRLRSGLALVINDNLRELAADEAATYQAIGITATICMPLIKGGRLTALMAIHDRVPRAWTDYEQTLISEVTERCWAHIQRAQAHAEVREAMAALEALNTTLE”, the protein production result is “failed”.

“MLDPARSYDLIGDVHGCALTLEHLLDRLGYHKQAGVWRHPSRMAVFLGDIIDRGPRIRESLHIVHDMVEAGQALCIMGNHEFNALGWSTPAAEGSGKQFVREHTPRHARLIHETLTQFEQHPGDWHDFLQWFYELPLFVDAGRFRVVHACWDAGLIAPLRQQYPNGCIDREFLQSAAVPDSFACTAFDRLLRGTDMRLPHGLTMTSGDGLTRAFFRTKFWEDDPQTYGDIVFQPDALPEPVARTPLSPAEKNSLLRYGAEEPMLFVGHYWRSGKPAPIRPNLACLDYSAVLYGKLAAYRLDQETRLDPNKFVWVDVERPEVVRLEHHHHHH”: the protein production entry was “failed”.

Take “MSSLMIKLNLNYKLITKKTLPKLFYWGLGIVFFFLAPTTNAGSLSPYTTKELEQLEREFIQLINQSDSVERNPLASQYINSIGKKLAHYGRIKTPYFFIVKSKEINAFAGPGGYIGINTQLILTSSNESELAAVMAHEIAHVRLHHLYSIIEHQKQMRVPLLASILASAALGVLNPTVGMGAMMASVSGFSQDNINFTRSKEKEADRIGIDMLIKAGFNPQGMAAFFNKMQENSRYYYTANIPAILRTHPLDADRIAEAENRTSRLPKKHYTDSLDYALFKELIRVSVASNNKQILDYYEHHCHKKNPATACQYGYVLALLNNNNFQKAAEKLNPLLLQDNSNLNFQIAMAQAELGLSQYQSALSRLAELQNNFPDNYAALMAYAQGLLTANQPQKATAVLLKGSRQYKEDLPLCRELARAQAESHQKSYAYFTQAQCLLLEGQKRGAIAQLKVAQKLAKRDAYLSARISAKIDEIKFMVENLEHHHHHH”: the protein production entry was “failed”.

As for “MEVKMNEIMEALEQSELIIIHRHLRPDPDAYGSQLGLKYYLQKKFPNKQIYAVGANEDSLKFIGLMDEIDDDMYKKATVVVCDTANAPRIDDQRYDTGTKLLKIDHHPATDQYGDINYVNTKASSTSEIIYEFILHFNDEHIIDEQVARVLYLGIVGDTGRFLFNNTTPRTMQIAGKLLTYPFDHNQELNKMSEKDPKLLPFQGYILQNFDLNDKGFCKVKITKDILEKFQIQPNEASLFVNTIADIRGLKIWMFGVDEGDQIRCRLRSKGHIIINDVANTFGGGGHPNASGVSVNSWEQFEQLAEALNDKL”, the protein production result is recorded as “failed”.

In the case of “YSVTVKWGKEKFEGVELNTDEPPMVFKAQLFALTGVQPARQKVMVKGGTLKDDDWGNIKMKNGMTVLMMGSADALPEEPSAKT”, the protein production entry is “not failed”.

For the sequence “MSFSDSESSSHGGGGGDYKFFRQISRDRLLHEMLGSTKTGDSKAWKILIMDRVTVKVMSQSCKMADITDQGISLVEELFKRREPMPGMDAIYFIQPSKENIVMFLSDMSGREPLYRKAFIFFSSTIPKELVNHIKSDSSVLPRIGALREMNMEYFPIDNQGFLTDHEQALETLYAEDAENSRHFHICLNIMATRIATVFASLKELPFVRYRAAKSTASRDLVPSKLAAAIWDCISKYKAIPNFPQTETCELLIVDRSVDQVLRLIYYIYSSSPY”, the protein production result is reported as “failed”.

Turning to “MGLSHKFQVKQFVEISPYSQSRLRHEQPQTPIHSDITTYHCHRGQFDIVAGGLPCQGTSNAGNRQGLDDPRSALWAEQFRIIESDRPAIALIENPTGLLYRGLEQIICDLDSIGYMGEWNCISAQQVGLPHQRKRIFIIAYSNGLFNQVVPAPWSNQIGNHITQVRLSLETRSYQPGISKVASRIPIGVAKNIPGNYDARRAYGLSCSPRQAAVAWKRIDYLCSLLEHHHHHH”, the protein production result was “failed”.
